Consider 72 sequences from the supplement of paper PMC10567573.

± gives the standard deviation.

The series in a line: protein stability index of a GFP-peptide fusion (GPS, HEK-293T) (PSI 1-6); higher = more stable.
The mark [1] stands for this setting: treatment: DMSO, c terminus: a fixed tail appended.
The mark [2] stands for this setting: treatment: MLN4924 1 uM, 8 h, c terminus: a fixed tail appended.
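Note: 24-mer peptide tiles fused after GFP, lentivirally expressed, FACS-sorted into six equal bins by GFP/DsRed ratio, decoded by Illumina sequencing, PSI is the read-weighted mean bin number.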

For the sequence SSSSSSSSSSSASSSASSSFSEEG [NFE2L1], the protein stability index is, setting by setting: under setting [1], 5.43 ± 0.33; under setting [2], 5.38 ± 0.23.
For the sequence SSTTILVQWKEPEEPNGQIQGYRV [PTPRD], the protein stability index by setting is: under setting [1], 2.91 ± 0.32; under setting [2], 2.71 ± 0.46.
Consider STCFERPCFKWYTSPWSECTKTCG [ADAMTSL2], for which the protein stability index is 2.47 ± 0.64 under setting [1] and 2.75 ± 0.57 under setting [2].
In the case of STSDSDLTCDSSTSSSDDDEEVSG [C18orf25], the protein stability index is 5.22 ± 0.21 under setting [1] and 5.28 ± 0.13 under setting [2].
With STSFLPELSSVHPPHYFFTYRIRI [FBXO3], the protein stability index is, setting by setting: under setting [1], 2.66 ± 0.33; under setting [2], 2.85 ± 0.48.
SVDWLSQSSCSGPTHTPRPADFSL [VENTX] registered a protein stability index under setting [1] of 3.21 ± 0.25 and a protein stability index under setting [2] of 3.28 ± 0.15.
Consider SVVCRELGFGSAKEAVTGSRLGQG [LOXL2], for which the protein stability index amounted to 3.69 ± 0.41 under setting [1] and 4.12 ± 0.44 under setting [2].
The sequence SWGIAGETELALVKESGERKVTDS [DLC1] yielded a protein stability index under setting [1] of 5.14 ± 0.3 and a protein stability index under setting [2] of 5.46 ± 0.19.
Take SYRPAYDQGGPVEILPFLYLGSAY [DUSP5]: the protein stability index was 2.08 ± 0.33 under setting [1] and 2.18 ± 0.32 under setting [2].
In the case of SYRSFHSGGYGQDALGMDPMMEHE [CTNNB1], the protein stability index was determined as 4.29 ± 0.2 under setting [1] and 4.21 ± 0.25 under setting [2].
With TAAPPPPPPSRPSVAVPPPPPNRM [WASL], the protein stability index is, setting by setting: under setting [1], 4.82 ± 0.3; under setting [2], 4.87 ± 0.2.
As to TALHIACYNGQDAVVNELIDYGAN [ANKRD44], the protein stability index was 2.69 ± 0.27 under setting [1] and 2.86 ± 0.24 under setting [2].
With TARVIIPLLKDEGFAVKALWGRTQ [GFOD1], the protein stability index reads like this: under setting [1], 2.08 ± 0.32; under setting [2], 2.27 ± 0.35.
With TASTAPPVPATAPSPAPAVAAAAA [SNAP91], the protein stability index under setting [1] came out at 5.09 ± 0.19 and the protein stability index under setting [2] stood at 5.08 ± 0.12.
In the case of TEAESEQEGSSGMELSWGQSPGQP [TEX19], the protein stability index stood at 5.43 ± 0.24 under setting [1] and 5.26 ± 0.25 under setting [2].
Regarding TEDELRVRHLEEENRGIVVLGINR [AUH], the protein stability index by setting is: under setting [1], 4.29 ± 0.15; under setting [2], 4.33 ± 0.39.
Take TERDEIEDVKCQEDQKLQVLLTQI [TRIM15]: the protein stability index was determined as 4.34 ± 0.2 under setting [1] and 4.54 ± 0.12 under setting [2].
Turning to TFAMVKGYFFPTSARDCKFTGNFF [DHCR7], the protein stability index by setting is: under setting [1], 2.56 ± 0.39; under setting [2], 2.71 ± 0.43.
The corresponding values for TFLKAFPLMGETQERERVLTHFSR [PSD2] are 2.45 ± 0.21 and 2.63 ± 0.39.
In the case of TFLSRILTGLNYEAPKYHIPYWVA [NSDHL], the protein stability index is, setting by setting: under setting [1], 2.77 ± 0.67; under setting [2], 3 ± 0.63.
TGQPLPQSIQQAMRYLRNHCLDQV [DLC1]: the protein stability index under setting [1] is 2.36 ± 0.093 and the protein stability index under setting [2] came to 2.4 ± 0.22.
Turning to THFTFKDLHFKMFDVGGQRSERKK [GNAI1], the protein stability index worked out at 2.83 ± 0.33 under setting [1] and 2.93 ± 0.15 under setting [2].
In turn, TIVKARDKLYHPECFMCSDCGLNL [PDLIM4] showed a protein stability index under setting [1] of 2.19 ± 0.44 and a protein stability index under setting [2] of 2.42 ± 0.19.
Sequence TKEGGMLAYYEVCSWKGATKQRIQ [CHIT1] returned a protein stability index under setting [1] of 2.26 ± 0.53 and a protein stability index under setting [2] of 2.91 ± 0.65.
As to TKKRHTPRGHAESTSNRQPRKQG [SMOC2], the protein stability index by setting is: (treatment: DMSO, c terminus: native) 2.59 ± 0.62; (treatment: MLN4924 1 uM, 8 h, c terminus: native) 3.3 ± 0.49.
In the case of TKLLNDEDQVVVNKAAVMVHQLSK [CTNNB1], the protein stability index under setting [1] was 3.6 ± 0.19 and the protein stability index under setting [2] worked out at 3.57 ± 0.4.
The corresponding values for TLLNPRMIVDVTPYMNPSPFTVSP [CLCN6] are 2.32 ± 0.079 and 2.25 ± 0.081.
Take TLTWDSGNPEPVSYYIIQHKPKNS [PTPRD]: the protein stability index by setting is: under setting [1], 2.69 ± 0.12; under setting [2], 3.05 ± 0.41.
On the same counts, the results for TMAAKKNRQSSDKQNGRVAKVKGH [C18orf25] are 4.53 ± 0.25 and 4.58 ± 0.29.
The corresponding values for TNLPIFKLKESTVRRRYSDFEWLR [SNX3] are 2.62 ± 0.3 and 2.53 ± 0.36.
The corresponding values for TPAPMSSAWKTVACGGTRDQLFMQ [MYBL2] are 2.75 ± 0.17 and 2.69 ± 0.3.
On to TPGIDLTRVLAEMREQYEAMAERN [KRT13], for which the protein stability index reads like this: under setting [1], 4.13 ± 0.49; under setting [2], 4.4 ± 0.32.
TPINQNVSLHQASLGGCSQDFLLF [NFE2L1] showed a protein stability index under setting [1] of 1.99 ± 0.55 and a protein stability index under setting [2] of 2.6 ± 0.58.
For TPVMEGYVEVKEGKTWKQICDKHW [LOXL2], the protein stability index is, setting by setting: under setting [1], 3.28 ± 0.32; under setting [2], 3.51 ± 0.37.
The corresponding values for TQKFTDMVATANNRQTFVNSAIRF [CHIT1] are 2.85 ± 0.32 and 3.17 ± 0.33.
Consider TQVLEDSEDSFCRRHPGLGKAFPS [TRAF3IP2], for which the protein stability index reads like this: under setting [1], 4.17 ± 0.35; under setting [2], 4.12 ± 0.39.
Consider TRDYAPPSRGHAYRDYGHSRRDES [RBMY1A1], for which the protein stability index by setting is: under setting [1], 4.54 ± 0.4; under setting [2], 4.61 ± 0.42.
Take TRLAFELFAEEQAEGPNRLLYKDG [LPCAT4]: the protein stability index under setting [1] was 3.85 ± 0.19 and the protein stability index under setting [2] came to 4.02 ± 0.2.
In the case of TRNSPRGCRLPSISSTTCGRQLEK [SPATS1], the protein stability index runs as follows: under setting [1], 3.81 ± 0.26; under setting [2], 4 ± 0.18.
For the sequence TRRSSYEDSSLPSINALLQAEVLS [HNF4A], the protein stability index worked out at 3.13 ± 0.22 under setting [1] and 3.15 ± 0.31 under setting [2].
Take TSASFGEESTPGQTNSETAVVALT [HDAC6]: the protein stability index came out at 4.714 ± 0.027 under setting [1] and 5.05 ± 0.19 under setting [2].
On to TSEESRPRLSQLSVTDVTTSSLRL [TNXB], for which the protein stability index worked out at 4.18 ± 0.29 under setting [1] and 4.24 ± 0.26 under setting [2].
The corresponding values for TSIVQAAAGGVPGGGSNNGKTPVC [PDLIM7] are 4.63 ± 0.17 and 4.81 ± 0.14.
On the same counts, the results for TSLFMTPLDVVKVRLQSQRPSMAS [SLC25A39] are 2.69 ± 0.34 and 3.02 ± 0.19.
On the same counts, the results for TSLLDLISIPITGDTLRTFSLVLV [DYNC2LI1] are 2.76 ± 0.89 and 2.51 ± 0.57.
On to TSWSQHCPWEPQKQPPWEFLQVLE [SPAG8], for which the protein stability index is 2.31 ± 0.13 under setting [1] and 2.55 ± 0.29 under setting [2].
On to TTIKRKREDDKLVVECVMKGVTST [FABP4], for which the protein stability index is 3.9 ± 0.52 under setting [1] and 3.9 ± 0.19 under setting [2].
TTLLKCYLHTNVALVAPLLRLENN [VPS39] came in with a protein stability index under setting [1] of 2.68 ± 0.54 and a protein stability index under setting [2] of 2.77 ± 0.57.
As to TTPIEEVKGLFKSENCPKVISCEF [LARP4], the protein stability index is, setting by setting: under setting [1], 2.9 ± 0.2; under setting [2], 2.82 ± 0.36.
As for TTQDLFAINRDTAFPGASHESSGN [RHOBTB3], the protein stability index is, setting by setting: under setting [1], 4.57 ± 0.51; under setting [2], 4.87 ± 0.15.
Regarding TVAIGAESEVYSWGKGARGRLGRR [NEK8], the protein stability index runs as follows: under setting [1], 4.08 ± 0.16; under setting [2], 4.14 ± 0.15.
On the same counts, the results for TVGLLWFAHHSLFLHVRKATRAMG [TMEM175] are 2.46 ± 0.15 and 2.42 ± 0.39.
The corresponding values for TVLLVLEDEDPEEMPKSSDFLIHP [PCDHGC5] are 2.75 ± 0.15 and 2.91 ± 0.21.
On to TVMMWPLAVYHRLWDRAYVRLKPA [RETREG3], for which the protein stability index under setting [1] was 2.34 ± 0.23 and the protein stability index under setting [2] was 2.27 ± 0.15.
TVNALEIELQAQHSMRNSLESTLA [KRT36] had a protein stability index under setting [1] of 3.38 ± 0.31 and a protein stability index under setting [2] of 3.38 ± 0.29.
For TWLKGKFTELRLLLDEEEALAKKF [TRIM14], the protein stability index runs as follows: under setting [1], 2.23 ± 0.42; under setting [2], 2.34 ± 0.23.
In the case of VAQCLRDLVAMQWADAAGEAVPEG [ZSWIM9], the protein stability index by setting is: under setting [1], 2.92 ± 0.33; under setting [2], 3.06 ± 0.36.
Regarding VAVDYCASENHGCEHECVNADGSY [MATN2], the protein stability index worked out at 5.08 ± 0.13 under setting [1] and 5.07 ± 0.054 under setting [2].
As for VCRDSVSRKGELTPLPETGYWRVR [TRIM39], the protein stability index by setting is: under setting [1], 2.55 ± 0.1; under setting [2], 2.71 ± 0.57.
Consider VCRIGDWLQERYEIVGNLGEGTFG [CLK3], for which the protein stability index runs as follows: under setting [1], 2.22 ± 0.42; under setting [2], 2.37 ± 0.33.
Consider VCSDYASGYHYGVWSCEGCKAFFK [ESR2], for which the protein stability index came out at 2.33 ± 0.35 under setting [1] and 2.56 ± 0.34 under setting [2].
Sequence VCVIAIGVVQALIVGYAFHFPHLL [TMEM175] returned a protein stability index under setting [1] of 3.11 ± 0.62 and a protein stability index under setting [2] of 3.09 ± 0.4.
As for VDSFQIILDSLLFFYDCSNNPISE [TENT5C], the protein stability index runs as follows: under setting [1], 3.03 ± 0.14; under setting [2], 3.14 ± 0.41.
As for VEEQLAQLRCEMEQQNQEYKILLD [KRT17], the protein stability index reads like this: under setting [1], 4.75 ± 0.29; under setting [2], 4.78 ± 0.22.
Turning to VFDLPESLGGIRACTLTVFPPEET [KLHL13], the protein stability index stood at 3.33 ± 0.41 under setting [1] and 3.39 ± 0.37 under setting [2].
As to VFDLRMMVANILNNEAFMNQEITK [RHOBTB2], the protein stability index is 2.72 ± 0.47 under setting [1] and 2.43 ± 0.46 under setting [2].
Regarding VFQHHQYLSPLERKRLAREMQLSE [VENTX], the protein stability index by setting is: under setting [1], 2.81 ± 0.26; under setting [2], 3.08 ± 0.37.
For the sequence VGHNHTYNMAPSALDSADLPPPSA [NFE2L1], the protein stability index is, setting by setting: under setting [1], 4.61 ± 0.16; under setting [2], 4.43 ± 0.36.
As for VGKGEILESLQDGAAESPYAYSNG [RAB40C], the protein stability index amounted to 4.88 ± 0.24 under setting [1] and 4.79 ± 0.2 under setting [2].
Sequence VHEVLQAVDAGDPAVEACENRRKV [TCF25] registered a protein stability index under setting [1] of 5.3 ± 0.22 and a protein stability index under setting [2] of 5.35 ± 0.097.
For VIDGRNVTVTDVDIVFSKIKGKSC [TPPP], the protein stability index was 2.6 ± 0.3 under setting [1] and 2.75 ± 0.41 under setting [2].
The corresponding values for VIMQVPERIVVAGNNEDVSFSRPA [MFF] are 3.4 ± 0.3 and 3.47 ± 0.6.
